mAb minimum effective concentration (EC99, microneutralization on MDCK cells) data for 2 substances are collected here from patent US20140302043A1.

Experiment in all cases: cell-based or functional assay
The target of assay [1] is hemagglutinin (HA) of H1N1 virus strain A/Auckland/65/2001 (influenza A virus H1N1, A/Auckland/65/2001).
Assay [2] has as its target hemagglutinin (HA) of H1N1 virus strain A/Bangkok/163/2000 (influenza A virus H1N1, A/Bangkok/163/2000).
Assay [3] deals with hemagglutinin (HA) of H1N1 virus strain A/Beijing/262/1995 (influenza A virus H1N1, A/Beijing/262/1995).
For assay [4], the target named is hemagglutinin (HA) of H1N1 virus strain A/Brisbane/59/2007 (influenza A virus H1N1, A/Brisbane/59/2007).
In assay [5] the target is hemagglutinin (HA) of H1N1 virus strain A/Canada/59/2004 (influenza A virus H1N1, A/Canada/59/2004).
Assay [6] has as its target hemagglutinin (HA) of H1N1 virus strain A/Chile/8885/2001 (influenza A virus H1N1, A/Chile/8885/2001).
The target of assay [7] is hemagglutinin (HA) of H1N1 virus strain A/Florida/2/1993 (influenza A virus H1N1, A/Florida/2/1993).
Assay [8] deals with hemagglutinin (HA) of H1N1 virus strain A/Fujian/156/2000 (influenza A virus H1N1, A/Fujian/156/2000).
The target in assay [9] is hemagglutinin (HA) of H1N1 virus strain A/Johannesburg/159/1997 (influenza A virus H1N1, A/Johannesburg/159/1997).
For assay [10], the target named is hemagglutinin (HA) of H1N1 virus strain A/Kawasaki/6/1986 (influenza A virus H1N1, A/Kawasaki/6/1986).
For assay [11], the target named is hemagglutinin (HA) of H1N1 virus strain A/Moscow/13/1998 (influenza A virus H1N1, A/Moscow/13/1998).
The target in assay [12] is hemagglutinin (HA) of H1N1 virus strain A/Neimenggu/52/2002 (influenza A virus H1N1, A/Neimenggu/52/2002).
Assay [13] deals with hemagglutinin (HA) of H1N1 virus strain A/New Caledonia/22/1999 (influenza A virus H1N1, A/New Caledonia/22/1999).
The target in assay [14] is hemagglutinin (HA) of H1N1 virus strain A/Shanghai/2/1997 (influenza A virus H1N1, A/Shanghai/2/1997).
In assay [15] the target is hemagglutinin (HA) of H1N1 virus strain A/Shengzhen/227/1995 (influenza A virus H1N1, A/Shengzhen/227/1995).
The target of assay [16] is hemagglutinin (HA) of H1N1 virus strain A/Solomon islands/03/2006, on virus (influenza A virus H1N1, A/Solomon Islands/03/2006).
Assay [17] deals with hemagglutinin (HA) of H1N1 virus strain A/USSR/90/1977 (influenza A virus H1N1, A/USSR/90/1977).
Assay [18] addresses hemagglutinin (HA) of H1N1 virus strain A/Ostrava/801/1998 (influenza A virus H1N1, A/Ostrava/801/1998).

Regarding mAb CH67 (antibody), the mAb minimum effective concentration (EC99, microneutralization on MDCK cells) was 0.098 µg/mL in assay [1]; 0.098 µg/mL in assay [2]; 0.098 µg/mL in assay [3]; 0.98 µg/mL in assay [4]; 0.098 µg/mL in assay [5]; 0.098 µg/mL in [6]. Further, the mAb minimum effective concentration (EC99, microneutralization on MDCK cells) stood at 0.012 µg/mL in [7]; 0.049 µg/mL in assay [8]; 0.39 µg/mL in assay [9]; 0.39 µg/mL in [10]; 0.012 µg/mL in assay [11]; 0.098 µg/mL in assay [12]. The mAb minimum effective concentration (EC99, microneutralization on MDCK cells) was determined as 0.195 µg/mL in [13]; 0.195 µg/mL in assay [14]; 0.024 µg/mL in assay [15]; 0.098 µg/mL in assay [16]; 25 µg/mL in assay [17].
As to “mAb CH65, recombinant intact IgG1 (antibody)”, the mAb minimum effective concentration (EC99, microneutralization on MDCK cells) came out at 0.195 µg/mL in assay [1]; 0.195 µg/mL in [2]; 0.098 µg/mL in assay [3]; 0.098 µg/mL in assay [4]; 0.098 µg/mL in [5]; 0.195 µg/mL in assay [6]. Further, the mAb minimum effective concentration (EC99, microneutralization on MDCK cells) in assay [7] turned out to be 0.012 µg/mL; in assay [8], 0.488 µg/mL; in assay [9], 0.098 µg/mL; in assay [10], 0.098 µg/mL; in assay [11], 0.012 µg/mL; in [12] it was 0.098 µg/mL. Also, the mAb minimum effective concentration (EC99, microneutralization on MDCK cells) in assay [13] amounted to 0.391 µg/mL; in assay [18], 12.5 µg/mL; in assay [14], 0.195 µg/mL; in [15], 0.012 µg/mL; in assay [16], 0.024 µg/mL; in assay [17], 100 µg/mL.
